Laboratory results taken from article doi:10.1101/2022.04.12.488075.

Target: SARS-CoV-2 Omicron BA.2 spike extracellular domain trimer (SARS-CoV-2 (Omicron BA.2)) (UniProt P0DTC2)

JMB2002 IgG (antibody)
Kd: 0.3 nM

JMB2002 Fab
Kd: 2.6 nM
